Source: doi:10.1101/2023.08.08.552478 (bioRxiv, 2023)
Primed or numbered codes have the meaning given here. No end group written: not given here. FITC′ = fluorescein isothiocyanate

Target: PEX5 TPR domain (C-terminal cargo-binding TPR domain of human PEX5L) (human, UniProt P50542-1 315-639)
Assay: fluorescence polarisation

Kd: 250 µM
Binder: {FITC′}-SAPKIPSWQIPVKSPSPS [N-terminal FITC conjugated SAPKIPSWQIPVKSPSPS PEX14 peptide]
